Source: the supplement of paper PMC5998384

How the values were obtained:
HeLa Kyoto [1] = experiment: solubility change mitosis vs G1/S (difference of NP-40 vs SDS log2 ratios) (log2 ratio difference); higher = more soluble in mitosis
HeLa Kyoto [2] = experiment: thermal stability score vs G1/S (z-score of summed log2 fold changes over temperatures); higher = more thermally stable than in G1/S
HeLa Kyoto [3] = experiment: melting temperature (median over replicates), in situ; higher = more thermally stable
[4] = cell cycle stage: early G1 (4.5 h after nocodazole release)
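Throughout, for melting temperature (median over replicates), in situ: HeLa Kyoto cells synchronized by double thymidine or nocodazole block, proteins quantified by TMT10plex mass spectrometry, three independent biological replicates.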
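Throughout, for solubility change mitosis vs G1/S (difference of NP-40 vs SDS log2 ratios): synchronized HeLa Kyoto cells (double thymidine block for G1/S, nocodazole release for mitosis), protein amounts in NP-40 versus SDS lysates quantified by mass spectrometry, three biological replicates.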
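Throughout, for thermal stability score vs G1/S (z-score of summed log2 fold changes over temperatures): synchronized HeLa Kyoto cells, proteins quantified by TMT10plex mass spectrometry, three biological replicates, mitosis taken 0.5 h after nocodazole release, G1/S directly after double thymidine block.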

AGRN, sequence (chain, as listed by the source): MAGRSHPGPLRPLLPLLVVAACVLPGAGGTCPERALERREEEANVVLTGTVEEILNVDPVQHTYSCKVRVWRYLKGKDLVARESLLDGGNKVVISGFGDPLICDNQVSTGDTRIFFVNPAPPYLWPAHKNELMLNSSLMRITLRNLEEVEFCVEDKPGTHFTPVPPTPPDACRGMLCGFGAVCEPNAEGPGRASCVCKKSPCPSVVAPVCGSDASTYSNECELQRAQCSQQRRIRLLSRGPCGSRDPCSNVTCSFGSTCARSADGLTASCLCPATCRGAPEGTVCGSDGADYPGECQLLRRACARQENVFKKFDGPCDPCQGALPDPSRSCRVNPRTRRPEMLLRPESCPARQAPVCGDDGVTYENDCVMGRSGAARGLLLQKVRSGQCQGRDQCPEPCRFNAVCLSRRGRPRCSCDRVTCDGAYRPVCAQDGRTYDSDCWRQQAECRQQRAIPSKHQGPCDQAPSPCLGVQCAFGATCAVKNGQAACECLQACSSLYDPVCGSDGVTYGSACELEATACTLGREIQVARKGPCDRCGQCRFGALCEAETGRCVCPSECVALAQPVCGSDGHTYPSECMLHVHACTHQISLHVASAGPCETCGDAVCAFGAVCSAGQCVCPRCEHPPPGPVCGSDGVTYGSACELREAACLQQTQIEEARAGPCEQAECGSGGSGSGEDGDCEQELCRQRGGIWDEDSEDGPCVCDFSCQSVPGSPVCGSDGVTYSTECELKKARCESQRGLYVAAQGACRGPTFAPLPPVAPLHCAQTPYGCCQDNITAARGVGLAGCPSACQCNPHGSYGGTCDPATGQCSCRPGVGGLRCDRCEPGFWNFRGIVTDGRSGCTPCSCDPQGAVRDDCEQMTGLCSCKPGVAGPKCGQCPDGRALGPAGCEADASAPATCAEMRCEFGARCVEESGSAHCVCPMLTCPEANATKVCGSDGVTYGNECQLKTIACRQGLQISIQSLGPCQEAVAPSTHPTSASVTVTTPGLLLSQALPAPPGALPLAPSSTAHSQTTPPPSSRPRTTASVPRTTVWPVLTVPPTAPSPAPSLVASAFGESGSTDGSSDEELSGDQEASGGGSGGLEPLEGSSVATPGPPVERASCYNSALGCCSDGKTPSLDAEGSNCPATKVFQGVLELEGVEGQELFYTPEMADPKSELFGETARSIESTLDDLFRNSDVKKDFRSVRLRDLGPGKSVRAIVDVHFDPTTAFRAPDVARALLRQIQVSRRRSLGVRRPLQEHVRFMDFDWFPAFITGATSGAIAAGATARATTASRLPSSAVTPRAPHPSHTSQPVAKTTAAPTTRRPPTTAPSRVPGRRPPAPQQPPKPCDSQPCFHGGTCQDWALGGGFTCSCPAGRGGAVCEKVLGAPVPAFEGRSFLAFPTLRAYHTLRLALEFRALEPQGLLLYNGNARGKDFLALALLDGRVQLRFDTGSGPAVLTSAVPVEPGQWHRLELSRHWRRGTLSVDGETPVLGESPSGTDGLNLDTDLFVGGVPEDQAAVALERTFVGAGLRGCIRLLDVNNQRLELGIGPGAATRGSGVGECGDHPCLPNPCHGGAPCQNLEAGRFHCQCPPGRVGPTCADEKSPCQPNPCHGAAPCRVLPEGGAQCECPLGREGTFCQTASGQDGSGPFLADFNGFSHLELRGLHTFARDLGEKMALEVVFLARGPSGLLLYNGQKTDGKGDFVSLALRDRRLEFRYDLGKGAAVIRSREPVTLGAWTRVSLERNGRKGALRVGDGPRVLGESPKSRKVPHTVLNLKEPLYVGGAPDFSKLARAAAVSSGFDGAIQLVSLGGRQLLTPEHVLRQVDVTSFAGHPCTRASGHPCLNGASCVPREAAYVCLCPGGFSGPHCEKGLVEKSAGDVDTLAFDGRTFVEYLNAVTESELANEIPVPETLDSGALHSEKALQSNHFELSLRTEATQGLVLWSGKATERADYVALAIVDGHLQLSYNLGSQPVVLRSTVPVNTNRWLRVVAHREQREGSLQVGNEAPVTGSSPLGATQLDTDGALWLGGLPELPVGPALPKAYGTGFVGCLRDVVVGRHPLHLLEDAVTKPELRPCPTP

Substance | solubility change mitosis (log2) (HeLa Kyoto [1]) | other results
ACTA1 | -0.193 | –
AGRN | -0.0384 | thermal stability score (HeLa Kyoto [2]; [4]): 3.71; thermal stability score (HeLa Kyoto [2]; cell cycle stage: mitosis): 4.6
AJUBA | -0.0418 | –
AK2 | 0.09 | –
BCKDK | -0.0559 | –
CHAF1B | 0.105 | –
CNOT11 | -0.0916 | –
COLGALT1 | 0.0451 | –
DNMT3B | 0.67 | –
DPP7 | 0.00739 | –
DPYSL2 | -0.147 | –
DYRK1A | 0.0078 | –
EI24 | -0.07 | –
EMG1 | 0.19 | –
ETF1 | -0.146 | –
FNTA | -0.132 | –
GAA | -0.231 | –
GADD45GIP1 | 0.258 | –
GORASP2 | -0.317 | –
HPCAL1 | -0.0209 | –
HSPG2 | -0.021 | –
IFI30 | 0.347 | –

Substance | solubility change mitosis (log2) (HeLa Kyoto [1]) | other results
LARP1 | 0.306 | –
LRPPRC | -0.118 | –
MALSU1 | -0.0468 | –
MEAF6 | 0.685 | –
MLTTLLPILLLSGWAFCSQDASDGLQRLHMLQISYFRDPYHVWYQGNASLGGHLTHVLEGPDTNTTIIQLQPLQEPESWARTQSGLQSYLLQFHGLVRLVHQERTLAFPLTIRCFLGCELPPEGSRAHVFFEVAVNGSSFVSFRPERALWQADTQVTSGVVTFTLQQLNAYNRTRYELREFLEDTCVQYVQKHISAENTKGSQTSRSYTSLVLGVLVGSFIIAGVAVGIFLCTGGRRC [PROCR] | – | melting temperature (HeLa Kyoto [3]; cell cycle stage: G1/S): 59.1 °C; melting temperature (HeLa Kyoto [3]; cell cycle stage: mitosis): 57.1 °C; thermal stability score (HeLa Kyoto [2]; [4]): 1.63; thermal stability score (HeLa Kyoto [2]; cell cycle stage: mitosis): 0.816
MPSPQLLVLFGSQTGTAQDVSERLGREARRRRLGCRVQALDSYPVVNLINEPLVIFVCATTGQGDPPDNMKNFWRFIFRKNLPSTALCQMDFAVLGLGDSSYAKFNFVAKKLHRRLLQLGGSALLPVCLGDDQHELGPDAAVDPWLRDLWDRVLGLYPPPPGLTEIPPGVPLPSKFTLLFLQEAPSTGSEGQRVAHPGSQEPPSESKPFLAPMISNQRVTGPSHFQDVRLIEFDILGSGISFAAGDVVLIQPSNSAAHVQRFCQVLGLDPDQLFMLQPREPDVSSPTRLPQPCSMRHLVSHYLDIASVPRRSFFELLACLSLHELEREKLLEFSSAQGQEELFEYCNRPRRTILEVLCDFPHTAAAIPPDYLLDLIPVIRPRAFSIASSLLTHPSRLQILVAVVQFQTRLKEPRRGLCSSWLASLDPGQGPVRVPLWVRPGSLAFPETPDTPVIMVGPGTGVAPFRAAIQERVAQGQTGNFLFFGCRWRDQDFYWEAEWQELEKRDCLTLIPAFSREQEQKVYVQHRLRELGSLVWELLDRQGAYFYLAGNAKSMPADVSEALMSIFQEEGGLCSPDAAAYLARLQQTRRFQTETWA [NDOR1] | – | melting temperature (HeLa Kyoto [3]; cell cycle stage: G1/S): 52.6 °C; thermal stability score (HeLa Kyoto [2]; [4]): -0.788; thermal stability score (HeLa Kyoto [2]; cell cycle stage: mitosis): -0.432
MRPL3 | -0.0054 | –
MRPL4 | -0.11 | –
MRPL18 | 0.126 | –
MRPL35 | 0.149 | –
MRPL40 | 0.188 | –
MRPL46 | 0.212 | –
MRPL47 | 0.0261 | –
MRPL53 | 0.25 | –
MRPS5 | 0.017 | –
MRPS9 | -0.0743 | –
MRPS14 | 0.165 | –
MRPS18B | 0.111 | –
MRPS25 | 0.166 | –
MRPS30 | -0.14 | –
MSEGDSVGESVHGKPSVVYRFFTRLGQIYQSWLDKSTPYTAVRWVVTLGLSFVYMIRVYLLQGWYIVTYALGIYHLNLFIAFLSPKVDPSLMEDSDDGPSLPTKQNEEFRPFIRRLPEFKFWHAATKGILVAMVCTFFDAFNVPVFWPILVMYFIMLFCITMKRQIKHMIKYRYIPFTHGKRRYRGKEDAGKAFAS [RER1] | – | melting temperature (HeLa Kyoto [3]; cell cycle stage: G1/S): 55.1 °C; melting temperature (HeLa Kyoto [3]; cell cycle stage: mitosis): 55.5 °C; thermal stability score (HeLa Kyoto [2]; [4]): -0.257; thermal stability score (HeLa Kyoto [2]; cell cycle stage: mitosis): -1.81
